Two substances from patent US20230091653 can be followed below.

Series [1] concerns h00-5 (non-binding control antibody h00 conjugated with compound 5, mp-D-Leu-Ala-Glu-PABC-MMAE).
The subject of series [2] is h00-37 (non-binding control antibody h00 conjugated with compound 37, mp-val-cit-PABC-MMAE).
The subject of series [3] is h00-7 (non-binding control antibody h00 conjugated with compound 7, mp-Leu-Ala-Glu-PABC-MMAE).

Regarding Cathepsin B, the “percentage of drug cleaved from the heavy chain (3 h at 37 C, pH 4.5, QToF mass spectrometry)” value in series [1] was “percentage of drug cleaved from the heavy chain of non-targeted ADCs 5 and 7 in vitro by Cathepsin B is similar to that found for non-targeted ADC 37”; in series [2], “percentage of drug cleaved from the heavy chain of non-targeted ADCs 5 and 7 in vitro by Cathepsin B is similar to that found for non-targeted ADC 37”; in series [3] it was “percentage of drug cleaved from the heavy chain of non-targeted ADCs 5 and 7 in vitro by Cathepsin B is similar to that found for non-targeted ADC 37”.

As for neutrophil elastase, the “percentage of drug cleaved from the heavy chain (3 h at 37 C, QToF mass spectrometry)” value is on record as “no proteolosis of h00-5 by neutrophil elastase was observed” in series [1], “percentage of drug cleaved from the heavy chain of non-targeted ADC 5 in vitro by neutrophil elastase is lower than that found for non-targeted ADC 37” in series [2] and “the h00-5 conjugate ... has its heavy chain cleaved by neutrophil elastase to a significantly lower extent than h00-7” in series [3].
